Holding throughout (assay type): biochemical
One assay deals with normal human plasma. As to the kind of experiment: Factor Xa generation in pooled normal human plasma. As to conditions: factor VIIa and factor X added, 15 min 37° C. The protocol: Increasing doses of heparanase were added to pooled normal human plasma (25 μL plasma). After 15 min at 37° C., chromogenic substrate for the detection of factor Xa was added (1 mM). The mean value±SD of three independent experiments is shown. Note a 7- to 8-fold increase in coagulation activity in the presence of heparanase.
Next, the procoagulant effect of heparanase in human plasma was tested. Using an ELISA method [Shafat I. et al., Biochem Biophys Res. Commun. […] When heparanase, factor VIIa and factor X were incubated (15 min, 37° C.) with pooled normal human plasma from five healthy donors, followed by the addition of a chromogenic substrate for factor Xa, a 7- to 8-fold increase in factor Xa levels was obtained com-pared to levels in plasma incubated in the absence of heparanase (FIG. 2). In this condition the coagulation was mainly dependent on the concentration of endogenous TF, as described previously [Suefuji H. et al., Am Heart J. 1997, 134(2 Pt. 1):253-259; Kim H K et al., Cardiology. 2000, 93(1-2):31-36]. The effect of heparanase was also tested in whole blood using thromboelastography. Citrated blood samples from healthy donors to which factor VIIa (0.04 μM) and factor X (1.4 μM) were added were recalcified according to the manufacturer's recommendations (final concentration of CaCl2) 8 mM) and arranged in the disposable cups of the thromboelastogram. […]

For another assay, the target named is T1, TF-factor VIIa complex (Homo sapiens, UniProt P13726).
T1 construct: purchased American Diagnostica (Stanford, Conn., USA)
As to the kind of experiment: Activated factor X generation assay with purified TF, factor VIIa and factor X (chromogenic substrate). As to the method:
FIG. 1A. Recombinant human TF, recombinant human factor VIIa, and plasma-derived human factor X were incubated (15 min, 37° C.) in a total assay volume of 125 μL. Chromogenic substrate for the detection of factor Xa was then added (final concentration 1 mM). Recombinant active heparanase GS3 (Hepa) was added prior to the addition of the coagulation factors. The mean value±SD of three independent experiments in shown. […]
FIG. 1C. […] The mean value of two experiments is shown. Note a 2-fold increase in coagulation activity when the medium contained heparanase or its derivatives.
Following preliminary experiments to quantify the appropriate protein doses, we performed a basic experiment of factor Xa generation in the following manner: the concentrations mentioned are the final concentrations. Lipidated recombinant human TF (0.004 μM, […]), recombinant human factor VIIa (0.04 μM) and plasma-derived human factor X (1.4 μM) were incubated in 50 μL assay buffer (0.06 M Tris, 0.04 M NaCl, 2 mM CaCl 2, 0.04% bovine serum albumin, pH 8.4) to a total volume of 125 μL in a 96-well sterile plate. After 15 min at 37° C., chromogenic substrate for factor Xa was added (1 mM). After 20 min, the reaction was stopped with 50 μL of glacial acetic acid and the level of factor Xa generation was determined using an enzyme-linked immunosorbent assay (ELISA) plate reader (Power Wave XS, BIO-TEK, VT, USA). In order to visualize the increased production of factor Xa by western blotting, the experiment was repeated with 7 μM factor X. After 15 min at 37° C., half of the reaction volume was subjected to blotting using monoclonal anti-human factor X/Xa heavy chain antibody.
The factor Xa generation assay was performed as described in the Design and Methods section with increasing doses of recombinant human heparanase (GS3) added prior to the addition of the coagulation factors. […] It should be noted that factor X is composed of two polypeptide chains, a heavy chain with a molecular weight of 38 kDa and a light chain with a molecular weight of 18 kDa joined by a dipeptide Arg-Arg. The factor VIIa-TF complex activates the conversion of factor X to factor Xa by cleaving the heavy chain to a 33 kDa peptide. […] In order to exclude contamination of the heparanase preparation during the routine procedure of purification described in the Design and Methods section, the inventors tested the effect of overnight serum-free without phenol medium of 293 HEK cells over-expressing heparanase and its derivatives compared to mock. The proteins were further purified from the culture medium and analyzed. Similar quantities of proteins were obtained from the culture media.

In another assay the target is T2, prothrombin (Homo sapiens, UniProt P00734).
T2 construct: plasma-derived human prothrombin; purchased American Diagnostica (Stanford, Conn., USA); host or cells: purified from human plasma
As to the kind of experiment: Direct activation of prothrombin by heparanase. Conditions: heparanase with prothrombin, 15 min 37° C.

T1 sequence (P13726 33-295): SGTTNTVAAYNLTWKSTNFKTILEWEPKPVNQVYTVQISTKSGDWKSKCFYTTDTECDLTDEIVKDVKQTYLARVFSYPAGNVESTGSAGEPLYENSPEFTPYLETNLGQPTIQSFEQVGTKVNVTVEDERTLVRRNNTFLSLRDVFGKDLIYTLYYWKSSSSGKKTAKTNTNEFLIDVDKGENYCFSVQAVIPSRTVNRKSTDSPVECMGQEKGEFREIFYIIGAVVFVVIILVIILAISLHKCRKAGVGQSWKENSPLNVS
T1 sequence (P08709 61-212 partner limits assumed): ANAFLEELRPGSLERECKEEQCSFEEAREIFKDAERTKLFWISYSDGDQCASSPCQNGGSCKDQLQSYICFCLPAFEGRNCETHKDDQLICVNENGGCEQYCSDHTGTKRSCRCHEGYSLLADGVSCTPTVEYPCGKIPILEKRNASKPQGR
T1 sequence (P08709 213-466 partner limits assumed): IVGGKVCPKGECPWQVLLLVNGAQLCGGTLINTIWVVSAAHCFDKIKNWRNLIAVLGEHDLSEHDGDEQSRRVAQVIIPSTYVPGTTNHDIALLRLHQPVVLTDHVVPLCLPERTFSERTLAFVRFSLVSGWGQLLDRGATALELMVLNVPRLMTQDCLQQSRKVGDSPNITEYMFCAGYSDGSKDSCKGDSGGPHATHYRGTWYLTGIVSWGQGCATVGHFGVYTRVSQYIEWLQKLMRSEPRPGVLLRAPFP

B1: heparanase: single chain GS3 active heparanase, comprised of the 8 kDa and 50 kDa heparanase heterodimer (8+50), recombinant human (protein, listed as Homo sapiens)
chain 1: DPAQDVVDLDFFTQEPLHLVSPSFLSVTIDANLATDPRFLILLGSPKLRTLARGLSPAYLRFGGTKTDFLIFDPKKE
chain 2: DPGKKFKNSTYSRSSVDVLYTFANCSGLDLIFGLNALLRTADLQWNSSNAQLLLDYCSSKGYNISWELGNEPNSFLKKADIFINGSQLGEDFIQLHKLLRKSTFKNAKLYGPDVGQPRRKTAKMLKSFLKAGGEVIDSVTWHHYYLNGRTATREDFLNPDVLDIFISSVQKVFQVVESTRPGKKVWLGETSSAYGGGAPLLSDTFAAGFMWLDKLGLSARMGIEVVMRQVFFGAGNYHLVDENFDPLPDYWLSLLFKKLVGTKVLMASVQGSKRRKLRVYLHCTNTDNPRYKEGDLTLYAINLHNVTKYLRLPYPFSNKQVDKYLLRPLGPHGLLSKSVQLNGLTLKMVDDQTLPPLMEKPLRPGSSLGLPAFSYSFFVIRNAKVAACI
modifications: single-chain GS3 linker
Turning to B1, in the assay with normal human plasma, the “increase in coagulation activity (factor Xa levels) in plasma” value was 7- to 8 fold. For the same molecule, in the assay with TF-factor VIIa complex (TF, factor VIIa, factor X, 15 min 37° C., heparanase added prior to the coagulation factors), the “increase in coagulation activity (factor Xa level)” value is 2 fold. In addition, in the assay with TF-factor VIIa complex (absence of sufficient factor VIIa), the “effect on Xa generation at reduced factor VIIa” value is recorded as “effect of heparanase was abolished”. The “increase in factor Xa levels” value with TF-factor VIIa complex (overnight serum-free medium of 293 HEK cells over-expressing heparanase species, compared to mock) worked out at 2 fold. The “Xa generation at reduced TF” value with TF-factor VIIa complex (very low levels of TF (3.13 μg)) was “increased Xa generation by three folds”. In addition, in the assay with TF-factor VIIa complex (without TF, factor VIIa or factor X, or with inactivated VIIa), the “factor Xa generation in incomplete reaction mixture” value was “Factor Xa was not generated”. In the assay with prothrombin, the “thrombin generation from prothrombin alone” value is listed as “no thrombin was generated”.

Source of the values: US11448657B2, “Methods and kits for assessing Heparanase procoagulant activity, compositions comprising Heparanase, and methods for the treatment of coagulation-related disorders” (RAMBAM MED-TECH, priority 2011, dated 2022).
